# Experimental data as given in the supplement of paper PMC9170038.
# System: MS2 coat protein
# Assay: apparent KD of MS2 coat protein; designed switch direction (-1 OFF switch, 1 ON switch): -1; higher = weaker reporter binding
# Outline: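 The reported apparent KD is a per-design median over clusters, from curve fits of normalised cluster fluorescence. Protein titrations used SNAP-549-labelled MS2 coat protein, doubled from 0.7 or 1.5 nM to 3 µM, in Tris-HCl pH 7.5 buffer with KCl, MgCl2, BSA, DTT, tRNA and Tween-20, with no input, 200 uM small-molecule ligand, or an oligonucleotide input. The RNA switches were transcribed on Illumina chips by stalled E. coli RNA polymerase.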
# [1] = input ligand: microRNA oligo, concentration not stated
# [2] = Eterna round: R95, input ligand: microRNA oligo, concentration not stated
# [3] = Eterna round: R95, input ligand: FMN 200 uM
# [4] = Eterna round: R95, input ligand: none
Sequence,apparent KD of MS2 coat protein (input ligand: FMN 200 uM) [nM],apparent KD of MS2 coat protein (input ligand: none) [nM],apparent KD of MS2 coat protein [1] [nM],apparent KD of MS2 coat protein [2] [nM],apparent KD of MS2 coat protein [3] [nM],apparent KD of MS2 coat protein [4] [nM]
"UAGUACAGAGGAUAUACAUGAGGAUCACCCAUGUGUUUCAGCUAGGAGACUAGCGAAAGUAGAAGGCUGUACUA [salish99_ex3_r4_008] (Eterna round: R97, puzzle: Exclusion 3)",22.9,9.42,,,,
"GCAGACGUAGUGAGGAUAUGCUCUACCUCGGUAGAGCAGAAGGCACAUGAGGAUCACCCAUGUGACUCCUCAUC [Omei Ex4B B18] (Eterna round: R97, puzzle: Brourd's mod of Exclusion 4)",49.2,20.1,,,,
"GCACGGAGUGUAGGAUAUCUGUGCGAUUAGCUCAGAGAAGGACACAUGAGGAUCACCCAUGUUACCUCAAUUAGCCUUCCGUGC [Eli exng1 - 032] (Eterna round: R96, puzzle: Exclusion NG 1)",30.4,19,17,,,
"GUCAGCUCGUCAGGAUAUGCACAUGAGGAUCACCCAUGUAAGAUCAAGCUGCUUCGGCAGCAAGUGCAGAAGGGACGAGCUGAC [ENG2/9-B1] (Eterna round: R96, puzzle: Exclusion NG 2)",161,140,229,,,
"GCACCAUGGCUUACUAGCCGUUAAACAUGAGGAUCACCCAUGUAGGAUAUGGUCUGGAUUACAGGCCAGAAGGGCGUAAGGUGC [JL Eli 026 mod] (Eterna round: R96, puzzle: Exclusion NG 3)",15.9,19.8,13.1,,,
"GCAGUCAAAGUGAGGAUAUCUAGAGCGAUAGCUCUAGAGAAGGCACAUGAGGAUCACCCAUGUGAUCAGACUGC [BmEx4/7-A4'1] (Eterna round: R97, puzzle: Brourd's mod of Exclusion 4)",605,257,,,,
ACAUUGCUAGGAUAUCGCGGUAAGGACAUGAGGAUCACCCAUGUGGUGCCGUGGGAGGCCCGAGAAGGAGCGACCU [Maveonle] (puzzle: Exclusion 5),,,,18.1,,
GCGCAGUCAGGAUAUGCCGCUUGCGAUCACCGUUGGCAAAGGCAGAAGGGACAUGAGGAUCACCCAUGUGGCGC [e4e Mirror Pins #3] (puzzle: Exclusion 4),,,,18.1,,
UACUUACGAGGAUAUCGAUUGUGGUACAUGAGGAUCACCCAUGUAUGUGAUAUUGUAUUUCGAGAAGGCGUUCAGU [JR_E5_Sub061] (puzzle: Exclusion 5),,,,22.7,,
CAUUAACAUGAGGAUCACCCAUGUGAGGAUAUGGAUACAUAAUACUACUACAUAAAUACCAGAAGGCGCAUACU [Maybaline] (puzzle: Exclusion 1),,,,28,31.4,55.1
"GCAUGUCUUAAGGAUAUGCUAAGGCGUGAGCCGGCAGAAGGUAAGACAUGAGGAUCACCCAUGUUUUCCUAAAA [jl-ex6-4.32 ViennaUCT mod] (Eterna round: R97, puzzle: Exclusion 6)",91.3,20.7,,,,
"AAUACAAGCUAUUGAUCCCACAUGAGGAUCACCCAUGUACCUGGCCGUGAGACCAGGUUUACAAUAGCUCGUCUUAU [Sensor-V1 #48] (Eterna round: R97, puzzle: Sensor, turn-off variant 1)",107,93.8,,,,
GGAAAACAUGAGGAUCACCCAUGUAAGGAUAUGCAAAAGGAUAUAGAAGGAAGAAAAAGCAGAAGGUACAAAGG [salish99-ex1_r3_099] (puzzle: Exclusion 1),,,,44.8,72.1,57.9
"GUUCUUCCUGUGAGGAUAUCCAUGUGUCGGUGUGUGGAGAAGGUACAUGAGGAUCACCCAUGUCACCCGCGUUA (Eterna round: R97, puzzle: Brourd's mod of Exclusion 4)",24.3,19.2,,,,
"ACCUAUGAGGAGGAUAUACAGUGCGAAAGGACAGUAGAAGGCUUCACAUGAGGAUCACCCAUGUCGAUAAGCGA [EX6 #83] (Eterna round: R97, puzzle: Exclusion 6)",30.2,21.5,,,,
"AGCGAAUAAGUAGGAUAUGAGAAUAGAUAGAGCUCAGAAGGACUACAUGAGGAUCACCCAUGUAAAGUCUUGAGGCUGCGUGGU [Prohibition 14 - Jieux - Exclusion NG 1] (Eterna round: R96, puzzle: Exclusion NG 1)",10.8,13.7,11.3,,,
UGAGUGUGAGGAUAUGGUAAAGAUAAGAUGAUGAAAGAACUCCAGAAGGCACAUGAGGAUCACCCAUGUAGAUG [JL-ex4-2.12 Jieux mod] (puzzle: Exclusion 4),,,,35.4,81.1,35.7
ACGUCCCAAGUCAGGAUAUAGGCCGGACAAAGGGACUAGAAGGGACAUGAGGAUCACCCAUGUGGGCAAAAGAC [Terarace] (puzzle: Brourd's mod of Exclusion 4),,,,29.4,29.4,32
UUUUAACAUGAGGAUCACCCAUGUGAGGAUAUCGAAAUUUUUAUUAAUAUUAAUAAAACGAGAAGGCACAUUUU [JMF 12] (puzzle: Exclusion 1),,,,58.3,,
"UUCCGGCAUGUAGGAUAUGGAUCCGAUUAGGAUUUAGAAGGACAUGAGGAUCACCCAUGUGCAUUUAAUUAGUCAUUACCGUUU [EXclNG1-LROPPY06] (Eterna round: R96, puzzle: Exclusion NG 1)",,,34.4,,,
"AAGUAUCAUGUAGGAUAUGCUAACCGAACGUUAGCAGAAGGACAUGAGGAUCACCCAUGUUCUCAUCUGUAAGAACAGAUGUCU [Ex NG1 #6] (Eterna round: R96, puzzle: Exclusion NG 1)",27.9,15.5,12.6,,,
"UCUUGUUGUCCUUGAUUUUACAUGAGGAUCACCCAUGUUAUUUUGAUUAUGAUGUGUAAGUUUGUUGCUCGUUUUAU [JR_STOV1_Sub068] (Eterna round: R97, puzzle: Sensor, turn-off variant 1)",49.8,54.3,,,,
"AUAAUGUGAGGAUAUCGAGACUACUGCUUCGGCAGUAGUCUCGAGAAGGCACAUGAGGAUCACCCAUGUGAUCA [E4/2-A1] (Eterna round: R97, puzzle: Exclusion 4)",56.6,685,,,,
"ACAUGAGGAUCACCCAUGUAAUGAAGGGUACUAUAUUAAACGUAGGAUAUCGAUGUAAGUUUGUACGAGAAGGACGAUUGCCUU [JR_ExcNG3_Sub052] (Eterna round: R96, puzzle: Exclusion NG 3)",48.2,84.1,39.5,,,
AAAUCACAUGAGGAUCACCCAUGUGAGGAUAUGAUACUAUGUACUUCGGUACAUAGUAUCAGAAGGCAUGUGGA [Ex1-3: 89] (puzzle: Exclusion 1),,,,28.2,,
"UUAUUAAAUGUAGGAUAUGCAUAUUAUUAUUAUGCAGAAGGACAUGAGGAUCACCCAUGUAUAUUAUUAUUAUUUAUUAUUUAU [Title] (Eterna round: R96, puzzle: Exclusion NG 1)",,,35.5,,,
"GUCAGACGAGGAUAUGAUGUCAAAGACAUGAGGAUCACCCAUGUGAUCAAUUAAUUAAGAUCAGAAGGCGUCUGAC [E5/2-A3] (Eterna round: R97, puzzle: Exclusion 5)",172,222,,,,
